The results in this text go back to publication PMC5387714.

The target of assay [1] is Human FcRn (human) (UniProt P55899). Nature of the assay: MST; ligands (HER2, CD16a, FcRn) labelled with RED-NHS; 10 μL labelled ligand mixed with 10 μL gradient mAb; Monolith NT.115, 40% IR-laser power; fit with the Hill equation in Prism.
The target in assay [2] is Phe176 CD16a (human) (UniProt P08637). The assay is described as above.
In assay [3] the target is Val176 CD16a (human) (UniProt P08637). The assay is described as above.
For assay [4], the target named is Phe176 CD16a (human) (UniProt P08637).

Sequence of UniProt P55899 (P55899 24-297): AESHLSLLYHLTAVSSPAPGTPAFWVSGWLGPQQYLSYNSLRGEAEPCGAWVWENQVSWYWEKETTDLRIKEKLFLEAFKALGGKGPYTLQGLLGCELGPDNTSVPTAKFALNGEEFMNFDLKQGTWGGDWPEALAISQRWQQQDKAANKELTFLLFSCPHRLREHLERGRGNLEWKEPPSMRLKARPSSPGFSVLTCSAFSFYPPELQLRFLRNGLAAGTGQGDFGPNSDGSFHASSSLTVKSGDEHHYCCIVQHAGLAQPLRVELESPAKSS

For the substance Pertuzumab^Fuc+SA+ (antibody), the Kd in assay [1] came to 0.86 nM; in assay [2], 1.31 nM; in assay [3] it was 0.35 nM.

As for Pertuzumab^Fuc+SA− (antibody), the Kd in assay [1] was 0.83 nM; in assay [2] it was 0.45 nM.

For the substance Pertuzumab^Fuc−SA+ (antibody), the values for the Kd in assay [1] and in assay [2] were 0.84 nM and 0.29 nM, respectively.

As for Pertuzumab^Fuc−SA− (antibody), the ADCC (LDH release), SK-BR-3 target cells, human PBMCs as effector cells, E/T 50/1; fold against pertuzumab^Fuc+SA+; allotype of the donors' FcγRIIIa not stated in assay [4] is 20 fold. Also, the Kd in assay [1] was 0.82 nM; in assay [2] it was 0.13 nM; in assay [3], 0.02 nM.

For orientation: Kd means the equilibrium constant for the complex coming apart. Low values mean a tighter complex, high ones a looser complex.
